Test system: peptide library, one residue held at a place counted from the S/T acceptor
Assay: relative phosphorylation of the sub-library (ratio to the mean residue at this position); higher = residue favoured
Summary of the method: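 Spots on streptavidin membranes were phosphorimaged and quantified by densitometry to measure phosphorylation of biotinylated degenerate peptide sub-libraries by purified recombinant kinases, human or orthologue constructs. The reactions ran in 384-well plates for 90 min under kinase-specific conditions, with peptides at 50 μM and 50 μM ATP spiked with γ-32P-ATP. Relative sub-library phosphorylation is the ratio to the mean residue at that position.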

TTBK2, construct: aa1-450, human, sequence (Q6IQ55 1-450, looked up): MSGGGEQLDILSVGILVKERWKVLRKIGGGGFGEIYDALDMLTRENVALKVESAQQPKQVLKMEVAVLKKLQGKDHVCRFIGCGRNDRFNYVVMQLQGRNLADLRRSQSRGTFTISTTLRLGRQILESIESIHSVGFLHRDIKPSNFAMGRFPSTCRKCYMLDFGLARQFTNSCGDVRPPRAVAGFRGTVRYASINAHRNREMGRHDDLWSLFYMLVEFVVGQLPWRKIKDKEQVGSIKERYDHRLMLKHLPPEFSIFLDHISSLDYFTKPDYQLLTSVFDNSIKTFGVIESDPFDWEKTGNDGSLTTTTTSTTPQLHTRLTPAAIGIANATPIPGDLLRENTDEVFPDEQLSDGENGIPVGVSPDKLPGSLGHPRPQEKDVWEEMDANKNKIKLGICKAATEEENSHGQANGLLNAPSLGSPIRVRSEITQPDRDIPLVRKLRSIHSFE
WNK4, construct: aa1-444, human, sequence (Q96J92 1-444, looked up): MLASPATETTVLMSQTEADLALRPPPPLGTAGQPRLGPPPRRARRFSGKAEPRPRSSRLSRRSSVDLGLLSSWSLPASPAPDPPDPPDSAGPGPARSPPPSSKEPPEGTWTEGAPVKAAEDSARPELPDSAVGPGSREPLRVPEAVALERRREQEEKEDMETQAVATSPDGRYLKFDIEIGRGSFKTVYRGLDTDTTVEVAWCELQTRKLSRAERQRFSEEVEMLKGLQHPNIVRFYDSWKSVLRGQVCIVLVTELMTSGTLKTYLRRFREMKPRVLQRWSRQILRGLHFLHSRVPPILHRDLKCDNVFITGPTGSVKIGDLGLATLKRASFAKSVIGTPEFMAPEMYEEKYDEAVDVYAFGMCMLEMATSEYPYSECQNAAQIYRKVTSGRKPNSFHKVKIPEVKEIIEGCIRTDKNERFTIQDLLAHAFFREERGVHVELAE
VRK1, construct: Full length, human, sequence (Q99986 whole entry, looked up): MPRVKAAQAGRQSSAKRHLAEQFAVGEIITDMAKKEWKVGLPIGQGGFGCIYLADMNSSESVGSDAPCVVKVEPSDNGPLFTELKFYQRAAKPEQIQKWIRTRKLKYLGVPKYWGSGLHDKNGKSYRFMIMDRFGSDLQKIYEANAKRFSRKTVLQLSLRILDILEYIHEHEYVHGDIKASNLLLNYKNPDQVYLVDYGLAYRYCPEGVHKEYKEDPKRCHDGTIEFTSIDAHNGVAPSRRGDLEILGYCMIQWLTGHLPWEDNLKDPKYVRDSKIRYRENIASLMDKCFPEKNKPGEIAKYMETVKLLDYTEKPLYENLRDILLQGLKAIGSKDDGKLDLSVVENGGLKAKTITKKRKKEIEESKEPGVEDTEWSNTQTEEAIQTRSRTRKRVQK

TTBK2, construct: aa1-450, human (from UniProt Q6IQ55)
relative phosphorylation
Settings | at +1 | at +2 | at +3 | at +4 | at -1 | at -2 | at -3 | at -4 | at -5
A fixed | 0.693 | 1.88 | 1.11 | 1.02 | 0.912 | 1.25 | 0.986 | 0.998 | 1.03
D fixed | 0.298 | 0.221 | 0.968 | 0.919 | 0.604 | 1.91 | 1.38 | 1.34 | 0.944
E fixed | 0.913 | 0.22 | 1.42 | 0.928 | 0.64 | 1.36 | 1.2 | 1.08 | 0.905
F fixed | 1.38 | 0.907 | 1.07 | 0.85 | 0.951 | 0.802 | 0.844 | 1.11 | 1.08
G fixed | 0.29 | 0.615 | 1.21 | 1.17 | 0.563 | 0.964 | 1.19 | 1.18 | 1.28
H fixed | 0.878 | 1.48 | 1.09 | 0.983 | 1.05 | 0.867 | 1.18 | 0.996 | 1.03
I fixed | 1.72 | 1.07 | 1.01 | 0.853 | 1.24 | 0.742 | 0.949 | 0.881 | 0.99
K fixed | 0.739 | 0.913 | 0.707 | 0.996 | 1.32 | 0.67 | 0.884 | 1.12 | 1.15
L fixed | 1.5 | 0.733 | 1.03 | 0.822 | 1.12 | 1.29 | 0.807 | 0.811 | 0.699
M fixed | 1.52 | 1.38 | 1.1 | 1 | 1.14 | 0.853 | 0.972 | 0.859 | 0.827
N fixed | 0.329 | 0.553 | 0.594 | 0.92 | 0.942 | 1.07 | 1.04 | 0.841 | 0.847
P fixed | 0.115 | 0.31 | 0.495 | 1.24 | 0.805 | 1.35 | 0.834 | 0.837 | 0.981
Q fixed | 1.03 | 0.57 | 1 | 0.858 | 0.741 | 0.994 | 0.879 | 0.818 | 0.771
R fixed | 1.1 | 1.8 | 0.801 | 1.29 | 1.71 | 0.743 | 1.13 | 1.06 | 1.41
V fixed | 1.42 | 0.908 | 1.07 | 0.75 | 1.12 | 0.81 | 0.75 | 0.898 | 0.937
W fixed | 1.45 | 1.91 | 1.1 | 1.4 | 0.93 | 0.69 | 0.885 | 1.08 | 0.946
Y fixed | 1.63 | 1.54 | 1.23 | 0.998 | 1.22 | 0.643 | 1.09 | 1.1 | 1.18
pThr fixed | 0.576 | 0.426 | 0.831 | 0.97 | 0.7 | 2.61 | 1.78 | 1.55 | 1.02
pTyr fixed | 1.7 | 5.77 | 1.16 | 0.752 | 1.02 | 2.59 | 2.62 | 1.84 | 1.77

VRK1, construct: Full length, human (from UniProt Q99986)
relative phosphorylation
Settings | at +1 | at +2 | at +3 | at +4 | at -1 | at -2 | at -3 | at -4 | at -5
A fixed | 0.79 | 0.924 | 1.23 | 0.978 | 0.758 | 1.02 | 1.09 | 1.03 | 1.08
D fixed | 0.363 | 0.406 | 0.525 | 0.96 | 0.661 | 0.802 | 0.824 | 0.886 | 0.865
E fixed | 0.548 | 0.393 | 0.461 | 0.739 | 0.608 | 0.645 | 0.81 | 0.927 | 0.837
F fixed | 0.972 | 0.746 | 0.877 | 1.01 | 1.04 | 0.8 | 0.902 | 1.02 | 1.01
G fixed | 0.532 | 0.549 | 1.7 | 1.31 | 0.648 | 2.31 | 1.45 | 1.34 | 1.34
H fixed | 0.951 | 0.83 | 1.79 | 1.03 | 1.17 | 1.21 | 1.15 | 1.15 | 1.01
I fixed | 0.921 | 1.63 | 0.573 | 0.884 | 1.31 | 0.622 | 0.772 | 0.859 | 0.822
K fixed | 1.4 | 1.45 | 0.815 | 0.87 | 0.984 | 0.759 | 1.02 | 0.865 | 0.88
L fixed | 0.642 | 1.22 | 0.637 | 0.985 | 1.33 | 0.764 | 0.745 | 0.796 | 0.646
M fixed | 1.11 | 1.67 | 0.865 | 1.06 | 1.06 | 0.946 | 0.862 | 0.916 | 0.835
N fixed | 0.724 | 0.64 | 1.65 | 0.997 | 0.843 | 1.38 | 0.982 | 1.06 | 0.919
P fixed | 0.305 | 0.423 | 0.456 | 0.688 | 0.738 | 1.25 | 1.28 | 1.02 | 1.21
Q fixed | 1.4 | 1.34 | 0.988 | 0.952 | 0.977 | 1.19 | 1.03 | 0.962 | 1.01
R fixed | 2.6 | 1.2 | 1.22 | 1.33 | 1.03 | 1.01 | 1.3 | 0.978 | 1.23
V fixed | 1.39 | 2.09 | 0.723 | 0.75 | 1.53 | 0.616 | 0.848 | 0.97 | 1.02
W fixed | 1.15 | 0.695 | 1.2 | 1.32 | 1.02 | 0.815 | 0.931 | 1.14 | 1.13
Y fixed | 1.19 | 0.795 | 1.29 | 1.14 | 1.3 | 0.856 | 0.999 | 1.07 | 1.16
pThr fixed | 0.771 | 0.821 | 0.698 | 0.728 | 0.751 | 0.781 | 0.938 | 0.862 | 0.958
pTyr fixed | 0.752 | 0.601 | 0.942 | 1.37 | 1.03 | 0.723 | 1 | 0.967 | 1.05

WNK4, construct: aa1-444, human (from UniProt Q96J92)
relative phosphorylation
Settings | at +1 | at +2 | at +3 | at +4 | at -1 | at -2 | at -3 | at -4 | at -5
A fixed | 0.658 | 0.979 | 0.693 | 0.885 | 1.14 | 1.49 | 0.929 | 0.894 | 0.916
D fixed | 0.249 | 0.57 | 0.62 | 0.54 | 0.287 | 0.305 | 0.389 | 0.579 | 0.489
E fixed | 0.247 | 0.452 | 0.518 | 0.638 | 0.467 | 0.305 | 0.524 | 0.615 | 0.565
F fixed | 1.13 | 0.977 | 2.1 | 1.3 | 0.788 | 0.821 | 0.748 | 0.864 | 1.21
G fixed | 0.88 | 1.12 | 0.755 | 0.865 | 1.18 | 2.7 | 1.06 | 0.973 | 0.89
H fixed | 0.813 | 0.973 | 1.35 | 1.12 | 1.05 | 1.54 | 1.16 | 1.21 | 1.21
I fixed | 1.2 | 1.79 | 0.919 | 1.24 | 0.796 | 0.754 | 0.947 | 0.9 | 1.07
K fixed | 0.918 | 0.872 | 1.06 | 1.29 | 1.66 | 1.03 | 1.64 | 1.6 | 1.27
L fixed | 1.42 | 1.24 | 1.02 | 0.92 | 0.833 | 0.637 | 0.88 | 0.79 | 1.14
M fixed | 1.96 | 1.31 | 1.04 | 1.1 | 1.58 | 0.708 | 1.02 | 0.924 | 0.986
N fixed | 0.945 | 0.664 | 0.691 | 0.811 | 0.636 | 0.614 | 0.746 | 0.867 | 0.807
P fixed | 0.242 | 0.318 | 0.514 | 0.713 | 0.452 | 1.31 | 0.93 | 0.674 | 0.628
Q fixed | 1.17 | 0.522 | 0.565 | 0.673 | 0.952 | 0.573 | 0.741 | 0.88 | 0.639
R fixed | 1.87 | 2.16 | 1.22 | 1.42 | 2.68 | 1.74 | 2.66 | 2.19 | 1.7
V fixed | 0.973 | 1.16 | 0.848 | 0.969 | 0.812 | 0.972 | 0.959 | 0.877 | 0.891
W fixed | 0.975 | 0.85 | 1.63 | 1.32 | 0.637 | 0.662 | 0.709 | 1.04 | 1.25
Y fixed | 1.35 | 1.03 | 1.46 | 1.19 | 1.05 | 0.828 | 0.963 | 1.13 | 1.33
pThr fixed | 0.386 | 0.407 | 0.388 | 0.617 | 0.444 | 0.683 | 0.809 | 0.732 | 0.731
pTyr fixed | 0.565 | 0.537 | 0.612 | 0.674 | 0.727 | 0.471 | 0.708 | 0.527 | 0.764
